Data from patent EP3107577B1 (IBC Pharmaceuticals, Inc., dated 2024).
Where two headings read alike, the source gives them in different places.

Assays:
mouse CD3 = target: T1, mouse CD3 (mouse, UniProt P22646 22-108); assay: not described (data not shown)
T1 sequence (looked up): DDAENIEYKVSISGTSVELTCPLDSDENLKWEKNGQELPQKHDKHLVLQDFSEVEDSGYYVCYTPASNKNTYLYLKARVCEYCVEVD

mouse Trop-2 = target: T2, mouse Trop-2 (mouse, UniProt Q8BGV3 25-270, limits assumed); assay: not described (data not shown)
T2 sequence (looked up): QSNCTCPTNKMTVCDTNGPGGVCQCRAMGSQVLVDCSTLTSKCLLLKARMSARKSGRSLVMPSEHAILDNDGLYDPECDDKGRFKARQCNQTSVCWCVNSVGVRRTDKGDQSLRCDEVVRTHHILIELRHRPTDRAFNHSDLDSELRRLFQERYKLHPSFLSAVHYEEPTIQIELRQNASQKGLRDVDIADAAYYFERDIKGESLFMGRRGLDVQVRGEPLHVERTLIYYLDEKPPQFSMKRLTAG

Trop-2 [1] = target: T3, Trop-2 (human, UniProt P09758 27-323); assay: cell-based or functional assay
T3 sequence (looked up): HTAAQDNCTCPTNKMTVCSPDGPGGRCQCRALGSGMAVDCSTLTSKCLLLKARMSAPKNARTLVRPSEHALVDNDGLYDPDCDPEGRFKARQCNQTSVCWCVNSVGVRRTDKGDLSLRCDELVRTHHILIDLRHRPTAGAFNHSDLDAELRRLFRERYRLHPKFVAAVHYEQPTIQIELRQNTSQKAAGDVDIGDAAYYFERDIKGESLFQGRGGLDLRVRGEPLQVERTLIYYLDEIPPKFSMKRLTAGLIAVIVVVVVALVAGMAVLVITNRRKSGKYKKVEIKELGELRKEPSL

Trop-2 [2] = target: T3, Trop-2; assay: cell-based or functional assay; remark: listed apart in the source
Trop-2 [3] = target: T3, Trop-2; assay: assay not described; specificity EGP-1 per Table 11
Trop-2 [4] = target: T3, Trop-2; assay: as above; remark: listed apart in the source

B1: (E1)-3s (bispecific antibody)
scFv: not shown
heavy (part 1 of 2): QVQLQQSGSELKKPGASVKVSCKASGYTFTNYGMNWVKQAPGQGLKWMGWINTYTGEPTYTDDFKGRFAFSLDTSVSTAYLQISSLKADDTAVYFCARGGFGSSYWYFDVWGQGSLVTVSS
heavy (part 2 of 2): not shown
light: DIQLTQSPSSLSASVGDRVSITCKASQDVSIAVAWYQQKPGKAPKLLIYSASYRYTGVPDRFSGSGSGTDFTLTISSLQPEDFAVYYCQQHYITPLTFGAGTKVEIK
notes: also called TROP2-targeting bsAb; anti-human Trop-2 x anti-human CD3 bispecific antibody; not shown: human CH1, hinge residues and Gly/Ser linker; human kappa constant domain
For B1, the binding result (mouse CD3) was “no binding”, the binding result (mouse Trop-2) was “no binding” and the “IC50, T cell redirected killing of BxPC3, Donor 1” value (Trop-2 [1]) was 1.06 pM. The “IC50, T cell redirected killing of BxPC3, Donor 2” value (Trop-2 [1]) was 0.56 pM, the “IC50, T cell redirected killing of BxPC3, Donor 3” value (Trop-2 [1]) was 0.32 pM and the “IC50, T cell redirected killing of Capan-1, Donor 1” value (Trop-2 [1]) was 35.6 pM. For the same binder, the “IC50, T cell redirected killing of Capan-1, Donor 2” value (Trop-2 [1]) was 248 pM, the “IC50, T cell redirected killing of Capan-1, Donor 4” value (Trop-2 [1]) was 8.51 pM and the “IC50, T cell redirected killing of NCI-N87, Donor 1” value (Trop-2 [1]) was 6.76 pM. The “IC50, T cell redirected killing of NCI-N87, Donor 2” value (Trop-2 [1]) was 34 pM, the “EC50, T-cell lysis of NCI-N87 cells, very weak donor T cells” value (Trop-2 [2]) was 39 pM and the “EC50, T-cell lysis of NCI-N87 cells, very weak donor T cells, with peginterferonalfa-2a” value (Trop-2 [2]) was 1.4 pM. The “IC50, T-cell killing of BxPC3 cells” value (Trop-2 [2]) was 0.4 pM, the “IC50, T-cell lysis of NCI-N87 cells, donor of very active T cells” value (Trop-2 [2]) was 0.37 pM and the “IC50, T-cell lysis of NCI-N87 cells, with 0.1 nM 20*-2b” value (Trop-2 [2]) was 0.05 pM. For the same binder, the “IC50, T-cell lysis of NCI-N87 cells, with 0.1 nM peginterferonalfa-2a” value (Trop-2 [2]) was 0.14 pM, the “IC50, T-cell mediated lysis of Capan-1 cells” value (Trop-2 [2]) was 29 pM and the “IC50, T-cell mediated lysis of NCI-N87 cells” value (Trop-2 [2]) was 0.85 pM.

B2: C-AD2-IgG-hRS7 (antibody)
heavy (part 1 of 2): QVQLQQSGSELKKPGASVKVSCKASGYTFTNYGMNWVKQAPGQGLKWMGWINTYTGEPTYTDDFKGRFAFSLDTSVSTAYLQISSLKADDTAVYFCARGGFGSSYWYFDVWGQGSLVTVSS
heavy (part 2 of 2): CGQIEYLAKQIVDNAIQQAGC
light: DIQLTQSPSSLSASVGDRVSITCKASQDVSIAVAWYQQKPGKAPKLLIYSASYRYTGVPDRFSGSGSGTDFTLTISSLQPEDFAVYYCQQHYITPLTFGAGTKVEIK
notes: not shown: IgG heavy chain constant region and linker; kappa constant domain
B2: binds (Trop-2 [3]).

B3: C-DDD2-Fab-hRS7 (Fab)
heavy (part 1 of 2): QVQLQQSGSELKKPGASVKVSCKASGYTFTNYGMNWVKQAPGQGLKWMGWINTYTGEPTYTDDFKGRFAFSLDTSVSTAYLQISSLKADDTAVYFCARGGFGSSYWYFDVWGQGSLVTVSS
heavy (part 2 of 2): not shown
light: DIQLTQSPSSLSASVGDRVSITCKASQDVSIAVAWYQQKPGKAPKLLIYSASYRYTGVPDRFSGSGSGTDFTLTISSLQPEDFAVYYCQQHYITPLTFGAGTKVEIK
notes: also called CH1-DDD2-Fab-hRS7; not shown: CH1, hinge residues and linker; kappa constant domain
B3: binds (Trop-2 [4]).
